B1: CACACA_site6473 (dsDNA)
DNA 1: AAAAAAAAAAGACACACACACACACTAATACATACA
DNA 2: TGTATGTATTAGTGTGTGTGTGTGTCTTTTTTTTTT
B2: CACACA_site268 (dsDNA)
DNA 1: AATATAAACCCAAACACACACATATATATATATATA
DNA 2: TATATATATATATATGTGTGTGTTTGGGTTTATATT
B3: CACACA_site8840 (dsDNA)
DNA 1: ATAAATAAAGGACACACACACACACTAATAAAAAAA
DNA 2: TTTTTTTATTAGTGTGTGTGTGTGTCCTTTATTTAT
B4: CACACA_site493 (dsDNA)
DNA 1: AACATACAGAAACACACACACACACCCACACCCACA
DNA 2: TGTGGGTGTGGGTGTGTGTGTGTGTTTCTGTATGTT
B5: CACACA_site3589 (dsDNA)
DNA 1: AATAAAAAGAAACACACACACACACCCATATATATA
DNA 2: TATATATATGGGTGTGTGTGTGTGTTTCTTTTTATT
B6: CACACA_site2267 (dsDNA)
DNA 1: B5 DNA 1 with A5T, G9T, C13A
DNA 2: B5 DNA 2 with G24T, C28A, T32A
B7: CACACA_site453 (dsDNA)
DNA 1: CAAAGACACAAACACACACACACATACATACATACA
DNA 2: TGTATGTATGTATGTGTGTGTGTGTTTGTGTCTTTG
B8: CACACA_site2666 (dsDNA)
DNA 1: B7 DNA 1 with C1A, G5A, A11G, C23T
DNA 2: B7 DNA 2 with G14A, T26C, C32T, G36T
B9: CACACA_site7866 (dsDNA)
DNA 1: GGATATAACAGACACACACACACATATAAATATATT
DNA 2: AATATATTTATATGTGTGTGTGTGTCTGTTATATCC
B10: CACACA_site1992 (dsDNA)
DNA 1: TGGGTAAACAAACACACACACATATATATATATATA
DNA 2: TATATATATATATATGTGTGTGTGTTTGTTTACCCA
B11: CACACA_site8097 (dsDNA)
DNA 1: CATACACCCCAACACACACACACACCCATATATAAT
DNA 2: ATTATATATGGGTGTGTGTGTGTGTTGGGGTGTATG
B12: CACACA_site6446 (dsDNA)
DNA 1: TACACGCATAGACACACACACACACGCATATAAATA
DNA 2: TATTTATATGCGTGTGTGTGTGTGTCTATGCGTGTA
B13: CACACA_site5894 (dsDNA)
DNA 1: AAAAGGAACGGACACACACACATATATATATATATA
DNA 2: TATATATATATATATGTGTGTGTGTCCGTTCCTTTT
B14: CACACA_site5873 (dsDNA)
DNA 1: B13 DNA 1 with A3T, G5A, G6C, A7C
DNA 2: B13 DNA 2 with T30G, C31G, C32T, T34A
B15: CACACA_site4437 (dsDNA)
DNA 1: CATATACACGAACACACACACATATATATATATATA
DNA 2: TATATATATATATATGTGTGTGTGTTCGTGTATATG
B16: CACACA_site6255 (dsDNA)
DNA 1: TTTATTAATAGACACACACACACACGCAAAATAAAA
DNA 2: TTTTATTTTGCGTGTGTGTGTGTGTCTATTAATAAA
B17: CACACA_site5884 (dsDNA)
DNA 1: AATACATACGGACACACACACACATATATATATATA
DNA 2: TATATATATATATGTGTGTGTGTGTCCGTATGTATT
B18: CACACA_site4352 (dsDNA)
DNA 1: B17 DNA 1 with A1C, A2C, T3C, T7G
DNA 2: B17 DNA 2 with A30C, A34G, T35G, T36G
B19: CACACA_site5031 (dsDNA)
DNA 1: B17 DNA 1 with A2G, C5T, T7C, A8T
DNA 2: B17 DNA 2 with T29A, A30G, G32A, T35C
B20: CACACA_site2920 (dsDNA)
DNA 1: B17 DNA 1 with A1C, G10A, C23T
DNA 2: B17 DNA 2 with G14A, C27T, T36G
B21: CACACA_site906 (dsDNA)
DNA 1: B17 DNA 1 with T3A, A4G, C5G, G10A
DNA 2: B17 DNA 2 with C27T, G32C, T33C, A34T
B22: CACACA_site4674 (dsDNA)
DNA 1: B17 DNA 1 with A1C, C5T, T7A, C9A
DNA 2: B15 DNA 2 with A14G, T26C, G28T, G30T
B23: CACACA_site5272 (dsDNA)
DNA 1: B17 DNA 1 with A1T, T7G, C9T, C23T
DNA 2: B17 DNA 2 with G14A, G28A, A30C, T36A
B24: CACACA_site3541 (dsDNA)
DNA 1: GGAATAACCAGACACACACACACATATATATATATA
DNA 2: TATATATATATATGTGTGTGTGTGTCTGGTTATTCC
B25: CACACA_site9255 (dsDNA)
DNA 1: AAAGAAGGTAAACACACACACACACCGACAAAAAAA
DNA 2: TTTTTTTGTCGGTGTGTGTGTGTGTTTACCTTCTTT
B26: CACACA_site5247 (dsDNA)
DNA 1: AGGATATGCGGACACACACACATATATATATATATA
DNA 2: TATATATATATATATGTGTGTGTGTCCGCATATCCT
B27: CACACA_site8248 (dsDNA)
DNA 1: TGAACTCACGAGCACACACACACATATATATATATA
DNA 2: TATATATATATATGTGTGTGTGTGCTCGTGAGTTCA
B28: CACACA_site7106 (dsDNA)
DNA 1: AAAAAACACGCGCACACACACACACGCGCCCACATA
DNA 2: TATGTGGGCGCGTGTGTGTGTGTGCGCGTGTTTTTT
B29: CACACA_site4493 (dsDNA)
DNA 1: GGCATACACGGACACACACACACACCGACATATATA
DNA 2: TATATATGTCGGTGTGTGTGTGTGTCCGTGTATGCC
B30: CACACA_site481 (dsDNA)
DNA 1: ATAATCCTGAAACACACACACACACCCATAAATAAA
DNA 2: TTTATTTATGGGTGTGTGTGTGTGTTTCAGGATTAT
B31: CACACA_site8001 (dsDNA)
DNA 1: TGGGAGCACAGACACACACACACACCGATATATATA
DNA 2: TATATATATCGGTGTGTGTGTGTGTCTGTGCTCCCA
B32: CACACA_site5252 (dsDNA)
DNA 1: AACACGCGCGGACACACACACACACCCACATATATA
DNA 2: TATATATGTGGGTGTGTGTGTGTGTCCGCGCGTGTT
B33: CACACA_site4355 (dsDNA)
DNA 1: B32 DNA 1 with A1C, C5G, G6A, G8A
DNA 2: B29 DNA 2 with C10G, A32C, C35T, C36G
B34: CACACA_site4354 (dsDNA)
DNA 1: CACAGACACGGACACACACACACACCCATATATATA
DNA 2: TATATATATGGGTGTGTGTGTGTGTCCGTGTCTGTG
B35: CACACA_site706 (dsDNA)
DNA 1: AAAAAAAAAAAACACACACACACAAATACATACACA
DNA 2: TGTGTATGTATTTGTGTGTGTGTGTTTTTTTTTTTT
B36: CACACA_site4488 (dsDNA)
DNA 1: TACAAATATGGACACACACACATATATATATATATA
DNA 2: TATATATATATATATGTGTGTGTGTCCATATTTGTA
B37: CACACA_site5809 (dsDNA)
DNA 1: B36 DNA 1 with T1A, A5C, A6C, T7C
DNA 2: B36 DNA 2 with A30G, T31G, T32G, A36T
B38: CACACA_site3394 (dsDNA)
DNA 1: AACAGACAGAAACACACACACATATATATATATATA
DNA 2: TATATATATATATATGTGTGTGTGTTTCTGTCTGTT
B39: CACACA_site1020 (dsDNA)
DNA 1: B38 DNA 1 with A8G, G9A, A11G
DNA 2: B38 DNA 2 with T26C, C28T, T29C
B40: CACACA_site3654 (dsDNA)
DNA 1: B38 DNA 1 with C3A, G5A, G9A, T23C
DNA 2: B38 DNA 2 with A14G, C28T, C32T, G34T
B41: CACACA_site499 (dsDNA)
DNA 1: CACCCACCCAGACACACACACACAAAAAAAAAAAGA
DNA 2: TCTTTTTTTTTTTGTGTGTGTGTGTCTGGGTGGGTG

Changes are numbered by the printed parent chain.

The data set addresses T1, AP2-LT D1 (Plasmodium falciparum, UniProt Q8IAM1 2520-2577).
T1 sequence: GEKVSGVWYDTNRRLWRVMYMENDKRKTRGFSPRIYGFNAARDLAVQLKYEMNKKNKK
The data set can be described thus: gcPBM; about 25 ug protein; PBS, 1% milk, 0.2 mg/ml BSA, salmon testes DNA, 0.03% Triton X-100. Particulars: tags: N-terminal GST (pGEX-4T-1), kept; label: surface-attached array probe.
B1: the binding signal was 10.6 ln median PBM intensity, better of two orientations.

For B2, the binding signal is 10.3 ln median PBM intensity, better of two orientations.

Turning to B3, the binding signal was 10.7 ln median PBM intensity, better of two orientations.

Turning to B4, the binding signal is 10.6 ln median PBM intensity, better of two orientations.

As for B5, the binding signal was 10.7 ln median PBM intensity, better of two orientations.

On to B6, for which the binding signal was 10.6 ln median PBM intensity, better of two orientations.

In the case of B7, the binding signal is 10.6 ln median PBM intensity, better of two orientations.

Regarding B8, the binding signal is 10.6 ln median PBM intensity, better of two orientations.

As for B9, the binding signal was 10.4 ln median PBM intensity, better of two orientations.

Consider B10, for which the binding signal was 10.5 ln median PBM intensity, better of two orientations.

In the case of B11, the binding signal was 10.6 ln median PBM intensity, better of two orientations.

In the case of B12, the binding signal was 10.7 ln median PBM intensity, better of two orientations.

For B13, the binding signal was 10.7 ln median PBM intensity, better of two orientations.

For B14, the binding signal is 10.5 ln median PBM intensity, better of two orientations.

B15: the binding signal was 10.4 ln median PBM intensity, better of two orientations.

With B16, the binding signal is 10.4 ln median PBM intensity, better of two orientations.

Consider B17, for which the binding signal is 10.7 ln median PBM intensity, better of two orientations.

In the case of B18, the binding signal is 10.6 ln median PBM intensity, better of two orientations.

As to B19, the binding signal is 10.6 ln median PBM intensity, better of two orientations.

On to B20, for which the binding signal was 10.4 ln median PBM intensity, better of two orientations.

With B21, the binding signal is 10.7 ln median PBM intensity, better of two orientations.

As for B22, the binding signal was 10.6 ln median PBM intensity, better of two orientations.

For B23, the binding signal was 10.7 ln median PBM intensity, better of two orientations.

With B24, the binding signal is 10.7 ln median PBM intensity, better of two orientations.

On to B25, for which the binding signal was 10.6 ln median PBM intensity, better of two orientations.

Turning to B26, the binding signal is 10.7 ln median PBM intensity, better of two orientations.

For B27, the binding signal is 10.5 ln median PBM intensity, better of two orientations.

Take B28: the binding signal was 10.5 ln median PBM intensity, better of two orientations.

On to B29, for which the binding signal was 10.6 ln median PBM intensity, better of two orientations.

Regarding B30, the binding signal is 10.4 ln median PBM intensity, better of two orientations.

Consider B31, for which the binding signal was 10.6 ln median PBM intensity, better of two orientations.

On to B32, for which the binding signal was 10.7 ln median PBM intensity, better of two orientations.

As for B33, the binding signal is 10.7 ln median PBM intensity, better of two orientations.

For B34, the binding signal was 10.3 ln median PBM intensity, better of two orientations.

As for B35, the binding signal is 10.4 ln median PBM intensity, better of two orientations.

Consider B36, for which the binding signal was 10.7 ln median PBM intensity, better of two orientations.

With B37, the binding signal was 10.5 ln median PBM intensity, better of two orientations.

For the molecule B38, the binding signal is 10.7 ln median PBM intensity, better of two orientations.

Regarding B39, the binding signal is 10.4 ln median PBM intensity, better of two orientations.

Regarding B40, the binding signal was 10.7 ln median PBM intensity, better of two orientations.

For the molecule B41, the binding signal was 10.6 ln median PBM intensity, better of two orientations.

(Values after article PMC11417369, “DNA sequence and chromatin differentiate sequence-specific transcription factor binding in the human malaria parasite Plasmodium falciparum”.)
